{"source": "paper PMC8158043", "about": "(mAbs, 2021)", "target": "SARS-CoV-2 RBD (residues 319–541) (SARS-CoV-2, UniProt P0DTC2)", "assay": "BLI"}
{"binder": "CR3014 parental (human IgG1) (antibody, V domains shown) VH: EVQLVESGGGLVQPGGSLRLSCAASGFTFSDHYMDWVRQAPGKGLEWVGRTRNKANSYTTEYAASVKGRFTISRDDSKNSLYLQMNSLKTEDTAVYYCARGISPFYFDYWGQGTLVTVSS VL: not shown", "values": [{"measurement": "binding result", "result": "no binding"}]}
